Experimental data taken from patent US20260167699A1 (Chugai, published 2026).

T1: FcγRIIb extracellular domain, C-terminal His tag (human, UniProt P31994 43-217)
T1 construct: extracellular domain; also called 2b
T1 sequence: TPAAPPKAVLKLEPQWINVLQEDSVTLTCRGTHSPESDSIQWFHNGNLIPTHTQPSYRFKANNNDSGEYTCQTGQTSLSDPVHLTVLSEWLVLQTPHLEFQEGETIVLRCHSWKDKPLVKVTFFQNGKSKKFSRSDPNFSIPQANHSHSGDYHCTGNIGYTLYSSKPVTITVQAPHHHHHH

T2: FcγRIIa(H) extracellular domain, C-terminal His tag (human, UniProt P12318 34-217)
T2 construct: extracellular domain; Allotype H131; also called 2aH
T2 sequence: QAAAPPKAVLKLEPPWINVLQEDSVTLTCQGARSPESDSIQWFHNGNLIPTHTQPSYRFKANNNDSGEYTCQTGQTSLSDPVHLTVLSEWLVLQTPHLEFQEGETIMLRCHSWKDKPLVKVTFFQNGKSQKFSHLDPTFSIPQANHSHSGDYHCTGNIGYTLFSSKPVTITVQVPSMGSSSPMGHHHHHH

T3: FcγRIIa(R) extracellular domain, C-terminal His tag (human, UniProt P12318 34-217)
T3 construct: extracellular domain; Allotype R131; also called 2aR
T3 sequence: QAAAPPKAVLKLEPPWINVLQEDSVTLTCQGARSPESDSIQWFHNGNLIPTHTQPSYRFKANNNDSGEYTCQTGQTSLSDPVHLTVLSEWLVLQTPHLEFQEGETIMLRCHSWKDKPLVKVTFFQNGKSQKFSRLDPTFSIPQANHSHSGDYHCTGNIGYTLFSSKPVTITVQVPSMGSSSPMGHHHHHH


Tests used:
Assay in all cases: SPR (Biacore); binding relative to GpH7-A5/GpH7-B3/GpL16-k0 x100;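 further: antibodies captured on a chip surface, soluble FcγR flowed over in HBS-EP+ running buffer at 25 °C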
[1] = molecular target: T4, FcγRIIIa extracellular domain, C-terminal His tag (human, UniProt P08637 17-208)
T4 construct: extracellular domain; also called 3a
T4 sequence (P08637 other isoform, or with tags, fused parts or gaps): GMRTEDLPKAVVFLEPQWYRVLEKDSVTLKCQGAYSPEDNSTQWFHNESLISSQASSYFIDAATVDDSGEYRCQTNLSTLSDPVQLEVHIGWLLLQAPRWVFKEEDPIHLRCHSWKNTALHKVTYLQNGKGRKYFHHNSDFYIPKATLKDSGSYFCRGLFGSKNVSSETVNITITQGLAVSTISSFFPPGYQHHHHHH

[2] = molecular target: T5, FcγRIa extracellular domain, C-terminal His tag (human, UniProt P12314 16-292)
T5 construct: extracellular domain; also called 1a
T5 sequence (P12314 other isoform, or with tags, fused parts or gaps): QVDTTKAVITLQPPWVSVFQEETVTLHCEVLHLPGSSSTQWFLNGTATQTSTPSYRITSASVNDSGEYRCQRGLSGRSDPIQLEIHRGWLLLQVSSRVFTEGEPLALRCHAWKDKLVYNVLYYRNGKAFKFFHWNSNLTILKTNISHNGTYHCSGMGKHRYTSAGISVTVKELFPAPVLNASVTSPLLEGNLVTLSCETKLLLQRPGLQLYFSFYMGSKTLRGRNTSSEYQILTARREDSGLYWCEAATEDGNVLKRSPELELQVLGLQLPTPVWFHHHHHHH

[3] = molecular target: T1, FcγRIIb extracellular domain, …
[4] = molecular target: T2, FcγRIIa(H) extracellular domain, …
[5] = molecular target: T3, FcγRIIa(R) extracellular domain, …

Binder	He/Con 3a [1] [%]	He/Con 1a [2] [%]	He/Con 2b [3] [%]	He/Con 2aH [4] [%]	He/Con 2aR [5] [%]
GpH7-A5/GpH7-B3 variant P331_13S/GpL16-k0 (antibody, human IgG1, kappa, He Ab: anti-glypican 3 IgG1 heterodimer, only the GpH7-B3 chain mutated; position in EU numbering; also called He Ab) heavy 1: not shown heavy 2: not shown light: DIVMTQSPLSLPVTPGEPASISCQASESLVHSNRNTYLHWYLQKPGQSPQLLIYKVSNRFSGVPDRFSGSGSGTDFTLKISRVEAEDVGVYYCSQNTHVPPTFGQGTKVEIERTVAAPSVFIFPPSDEQLKSGTASVVCLLNNFYPREAKVQWKVDNALQSGNSQESVTEQDSKDSTYSLSSTLTLSKADYEKHKVYACEVTHQGLSSPVTKSFNRGEC	80.9	108	107	94	104
GpH7-A5/GpH7-B3 variant P331_16H/GpL16-k0 (antibody, human IgG1, kappa, He Ab: anti-glypican 3 IgG1 heterodimer, only the GpH7-B3 chain mutated; position in EU numbering; also called He Ab) heavy 1: not shown heavy 2: not shown light: DIVMTQSPLSLPVTPGEPASISCQASESLVHSNRNTYLHWYLQKPGQSPQLLIYKVSNRFSGVPDRFSGSGSGTDFTLKISRVEAEDVGVYYCSQNTHVPPTFGQGTKVEIERTVAAPSVFIFPPSDEQLKSGTASVVCLLNNFYPREAKVQWKVDNALQSGNSQESVTEQDSKDSTYSLSSTLTLSKADYEKHKVYACEVTHQGLSSPVTKSFNRGEC	73.4	105	128	87.5	113
GpH7-A5/GpH7-B3 variant P331_15Y/GpL16-k0 (antibody, human IgG1, kappa, He Ab: anti-glypican 3 IgG1 heterodimer, only the GpH7-B3 chain mutated; position in EU numbering; also called P331_I5Y; He Ab) heavy 1: not shown heavy 2: not shown light: DIVMTQSPLSLPVTPGEPASISCQASESLVHSNRNTYLHWYLQKPGQSPQLLIYKVSNRFSGVPDRFSGSGSGTDFTLKISRVEAEDVGVYYCSQNTHVPPTFGQGTKVEIERTVAAPSVFIFPPSDEQLKSGTASVVCLLNNFYPREAKVQWKVDNALQSGNSQESVTEQDSKDSTYSLSSTLTLSKADYEKHKVYACEVTHQGLSSPVTKSFNRGEC	74.9	109	127	89	112
GpH7-A5/GpH7-B3 variant P331_18N/GpL16-k0 (antibody, human IgG1, kappa, He Ab: anti-glypican 3 IgG1 heterodimer, only the GpH7-B3 chain mutated; position in EU numbering; also called He Ab) heavy 1: not shown heavy 2: not shown light: DIVMTQSPLSLPVTPGEPASISCQASESLVHSNRNTYLHWYLQKPGQSPQLLIYKVSNRFSGVPDRFSGSGSGTDFTLKISRVEAEDVGVYYCSQNTHVPPTFGQGTKVEIERTVAAPSVFIFPPSDEQLKSGTASVVCLLNNFYPREAKVQWKVDNALQSGNSQESVTEQDSKDSTYSLSSTLTLSKADYEKHKVYACEVTHQGLSSPVTKSFNRGEC	67.1	106	110	87.2	104
GpH7-A5/GpH7-B3 variant P331_14T/GpL16-k0 (antibody, human IgG1, kappa, He Ab: anti-glypican 3 IgG1 heterodimer, only the GpH7-B3 chain mutated; position in EU numbering; also called He Ab) heavy 1: not shown heavy 2: not shown light: DIVMTQSPLSLPVTPGEPASISCQASESLVHSNRNTYLHWYLQKPGQSPQLLIYKVSNRFSGVPDRFSGSGSGTDFTLKISRVEAEDVGVYYCSQNTHVPPTFGQGTKVEIERTVAAPSVFIFPPSDEQLKSGTASVVCLLNNFYPREAKVQWKVDNALQSGNSQESVTEQDSKDSTYSLSSTLTLSKADYEKHKVYACEVTHQGLSSPVTKSFNRGEC	67.8	102	111	86.5	104

Further lines, results first:

He/Con 3a [1] [%]	He/Con 1a [2] [%]	He/Con 2b [3] [%]	He/Con 2aH [4] [%]	He/Con 2aR [5] [%]	Binder
71.9	107	123	85.8	109	GpH7-A5/GpH7-B3 variant P331_20W/GpL16-k0 (antibody, human IgG1, kappa, He Ab: anti-glypican 3 IgG1 heterodimer, only the GpH7-B3 chain mutated; position in EU numbering; also called He Ab) heavy 1: not shown heavy 2: not shown light: DIVMTQSPLSLPVTPGEPASISCQASESLVHSNRNTYLHWYLQKPGQSPQLLIYKVSNRFSGVPDRFSGSGSGTDFTLKISRVEAEDVGVYYCSQNTHVPPTFGQGTKVEIERTVAAPSVFIFPPSDEQLKSGTASVVCLLNNFYPREAKVQWKVDNALQSGNSQESVTEQDSKDSTYSLSSTLTLSKADYEKHKVYACEVTHQGLSSPVTKSFNRGEC
73.9	108	94	91.6	96.1	GpH7-A5/GpH7-B3 variant P331_19Q/GpL16-k0 (antibody, human IgG1, kappa, He Ab: anti-glypican 3 IgG1 heterodimer, only the GpH7-B3 chain mutated; position in EU numbering; also called He Ab) heavy 1: not shown heavy 2: not shown light: DIVMTQSPLSLPVTPGEPASISCQASESLVHSNRNTYLHWYLQKPGQSPQLLIYKVSNRFSGVPDRFSGSGSGTDFTLKISRVEAEDVGVYYCSQNTHVPPTFGQGTKVEIERTVAAPSVFIFPPSDEQLKSGTASVVCLLNNFYPREAKVQWKVDNALQSGNSQESVTEQDSKDSTYSLSSTLTLSKADYEKHKVYACEVTHQGLSSPVTKSFNRGEC
113	96.9	102	114	99.9	GpH7-A5/GpH7-B3 variant S324_02A/GpL16-k0 (antibody, human IgG1, kappa, He Ab: anti-glypican 3 IgG1 heterodimer, only the GpH7-B3 chain mutated; position in EU numbering; also called He Ab) heavy 1: not shown heavy 2: not shown light: DIVMTQSPLSLPVTPGEPASISCQASESLVHSNRNTYLHWYLQKPGQSPQLLIYKVSNRFSGVPDRFSGSGSGTDFTLKISRVEAEDVGVYYCSQNTHVPPTFGQGTKVEIERTVAAPSVFIFPPSDEQLKSGTASVVCLLNNFYPREAKVQWKVDNALQSGNSQESVTEQDSKDSTYSLSSTLTLSKADYEKHKVYACEVTHQGLSSPVTKSFNRGEC
114	93.2	106	110	94.4	GpH7-A5/GpH7-B3 variant S324_01G/GpL16-k0 (antibody, human IgG1, kappa, He Ab: anti-glypican 3 IgG1 heterodimer, only the GpH7-B3 chain mutated; position in EU numbering; also called He Ab) heavy 1: not shown heavy 2: not shown light: DIVMTQSPLSLPVTPGEPASISCQASESLVHSNRNTYLHWYLQKPGQSPQLLIYKVSNRFSGVPDRFSGSGSGTDFTLKISRVEAEDVGVYYCSQNTHVPPTFGQGTKVEIERTVAAPSVFIFPPSDEQLKSGTASVVCLLNNFYPREAKVQWKVDNALQSGNSQESVTEQDSKDSTYSLSSTLTLSKADYEKHKVYACEVTHQGLSSPVTKSFNRGEC
124	104	126	122	118	GpH7-A5/GpH7-B3 variant S324_06M/GpL16-k0 (antibody, human IgG1, kappa, He Ab: anti-glypican 3 IgG1 heterodimer, only the GpH7-B3 chain mutated; position in EU numbering; also called He Ab) heavy 1: not shown heavy 2: not shown light: DIVMTQSPLSLPVTPGEPASISCQASESLVHSNRNTYLHWYLQKPGQSPQLLIYKVSNRFSGVPDRFSGSGSGTDFTLKISRVEAEDVGVYYCSQNTHVPPTFGQGTKVEIERTVAAPSVFIFPPSDEQLKSGTASVVCLLNNFYPREAKVQWKVDNALQSGNSQESVTEQDSKDSTYSLSSTLTLSKADYEKHKVYACEVTHQGLSSPVTKSFNRGEC
113	106	109	113	105	GpH7-A5/GpH7-B3 variant S324_16H/GpL16-k0 (antibody, human IgG1, kappa, He Ab: anti-glypican 3 IgG1 heterodimer, only the GpH7-B3 chain mutated; position in EU numbering; also called He Ab) heavy 1: not shown heavy 2: not shown light: DIVMTQSPLSLPVTPGEPASISCQASESLVHSNRNTYLHWYLQKPGQSPQLLIYKVSNRFSGVPDRFSGSGSGTDFTLKISRVEAEDVGVYYCSQNTHVPPTFGQGTKVEIERTVAAPSVFIFPPSDEQLKSGTASVVCLLNNFYPREAKVQWKVDNALQSGNSQESVTEQDSKDSTYSLSSTLTLSKADYEKHKVYACEVTHQGLSSPVTKSFNRGEC
